Source: the DeepSol protein solubility set

Assay: soluble on expression in E. coli; label from the status in PepcDB or PDB records

| Sequence | soluble on expression in E. coli |
| --- | --- |
| MSLEENMEGALFLENESFCEEIPDNPNIEKEKPLEFISSGNLEIDRKLEGGIPVGSLCLLEGAKDSGKSIFMQQIMWGALNQDKKVLALTTEKTSRNLLNNMESLKQDISDYFIIGRSKIFEINASDVEENPEISENLLEIMLECIKECEEELILIDSLTILAVNASENTLLNFFRECIKLCDKKKTILISVHGYAFSQEVLYRLRSVCNSCLELRIEQVGDKLIKTMEIQKLRGAKKTTGNMLSFDVNSECGLKIIPVSKVKAEGHHHHHH | soluble |
| MLNEKAIQDVDLYFQNIHGPEGRLASNETFDIVPGLSKDGAVQYQTYQFNEAPKHLQKQVKAGRILMERFVAVASAAVNKKAPSNKEKYHYDIWKEVSNQLIPAFFTDPIKGEQNLNTTVKGVEVAKSVIQFAGNVIAGNVTGFATFLQNFGNGLSAEMNKTQANYNYLYAYSTHDLFQDTSGNVFYKPRFLIYGTHFKQEQKKIATSCASYQEVNLEFGVDTVGGTFRIEEYFSNETFKKKVDNFLDKYEGKAIDDADSYFDDIFNGVKPNKNYVYHHHHHH | soluble |
| MKTLTDTDHIHTLIAEGEHQQQDFKFEISDARKIAKTLSAFANTDGGRLLIGVKDNGRIAGVRSEEEKYMIEAAAQLYCIPEIDYTLQTYIVEGKQVLVATIEENPHKPVYAKDENGKPLAYLRIKDENILATPIHLRVWQQSGSPRGELIRYTEREQLLLDLLEQGTLLSLNRYCRQTGISRRAAEHLLAKFVRYDIVEPVFENHKFYFRMKNELEHHHHHH | soluble |
| MATAHYHGSCQCGSVSFEVDADLDHTVICNCSRCKRLGSTLAFAPREKFTLLSGEDKLSEYLFNKHKIHHFFCSTCGIESFAYADGPDGTPMVAVNANCLDGVDPRALKSQAFDGAAA | soluble |
| SATLKVSDSVPAPSDDAEQLRTAFEGWGTNEDLIISILAHRSAEQRKVIRQAYHETYGEDLLKTLDKELSNDFERAILLWTLEPGERDALLANEATKRWTSSNQVLMEVACTRTSTQLLHARQAYHARYKKSLEEDVAHHTTGDFRKLLVSLVTSYRYEGDEVNMTLAKQEAKLVHEKIKDKHYNDEDVIRILSTRSKAQINATFNRYQDDHGEEILKSLEEGDDDDKFLALLRSTIQCLTRPELYFVDVLRSAINKTGTDEGALTRIVTTRAEIDLKVIGEEYQRRNSIPLEKAITKDTRGDYEKMLVALLGEDDA | soluble |
| MGGDSKGTYCGAPILGPGSAPKLSTKTKFWRSSTTPLPPGTYEPAYLGGKDPRVKGGPSLQQVMRDQLKPFTEPRGKPPKPSVLEAAKKTIINVLEQTIDPPEKWSFTQACASLDKTTSSGHPHHMRKNDCWNGESFTGKLADQASKANLMFEGGKNMTPVYTGALKDELVKTDKIYGKIKKRLLWGSDLATMIRCARAFGGLMDELKAHCVTLPIRVGMNMNEDGPIIFERHSRYKYHYDADYSRWDSTQQRAVLAAALEIMVKFSSEPHLAQVVAEDLLSPSVVDVGDFKISINEGLPSGVPCTSQWNSIAHWLLTLCALSEVTNLSPDIIQANSLFSFYGDDEIVSTDIKLDPEKLTAKLKEYGLKPTRPDKTEGPLVISEDLNGLTFLRRTVTRDPAGWFGKLEQSSILRQMYWTRGPNHEDPSETMIPHSQRPIQLMSLLGEAALHGPAFYSKISKLVIAELKEGGMDFYVPRQEPMFRWMRFSDLSTWEGDRNLAPSFVNEDGVEVDKLAAALEHHHHHH | soluble |
| MGSDKIHHHHHHMKSRLKKSHRLIRLISNIKSEPYLTVEQLVKIHRISRAQFYKDKAALAELGFEFSWDRRRRRFVISRVAYCPVENLTLSERWALLMAARQLSASGDYSLSFEVLNAARKLAAGLSDPIRETAVSLFNDLVLREGYGCRKEVMNKISMAIFEKRRIILTYKKPLDSQPEREELDPYHLFFQDRSLYVEGYACLRRDVRMFRLNRIRDIAFTPIRFSIPDDYDFGKRYRNAFSVFGGTTTQRVVVRFTAHIRPYIEETLWHHSQVVTIENGGFIRFEVQVAEPREVLWWAFRWGAGAEILEPAWLREKAKCEVEKMAGMYGRGSGSG | not soluble |
| GSHMSEWKARRFWASVGIHKEEGGWAVLLDERPLRTPGKQPLRLPTEALALAIAEEWQAVQEVIDPNAMPLTRSANSAIEKVAPQFDAVAAMLGDYGGTDLLSYRADAPEALVRAQAEGWDPLIDWAATELRAPLRITHGVIPVPQDPVVLLKLRAEVASLDPFGLTALHDLVTLPGSLILGLAVIRGRIDAPTAHALSRIDEEFQAERWGRDEEAEAQAASRLAAMRDSERFWHLTRG | soluble |
| MAHRKTTTKNGNGGTLGFEAELFKAADKLRGNMEPSDYKHVALGLIFLKYISDAFEAKHSALLAEDAQAAEDKDEYLAHNVFWVPKQARWSHLKANAKQSTIGTLIDEAMRDIEKDNPSLKHVLPKDYARPALNKVMLGELIDLISGIALNEEGARSKDILGRVYEYFLGQFAGAEGKRGGEFYTPRSVVRVLVQMLEPYSGRVYDPCCGSGGMFVQSEKFVLEHGGRIGDIAIYGQESNYTTWRLAKMNLAVRGIDSDIRWNNEGSFHNDALRDLKADYILANPPFNISDWGGDRLREDVRWKFGVPPAGNANYAWLQHIYHHLAPNGTAGVVLANGSMSSNHSGEGEIRTHMIEADIVDCMIAMPGQLFYSTQIPACLWFLARNKNPGKGLRDRRGQVLLMDARALGVLVDRTRRELTDEHIQQIADTYHAWRGEQGAAAYADVAGFCKSATLEDIRKQGYVLTPGRYVGAVEREDDGEPFPQKMQRLSAQWRAQRAAAAKLDAAIAANLKELGYGG | soluble |
| MGTWPLTVTKEMEKRKELFRRDPNRALIGAGGYKAADEAIVHDAAIALALGKNVLLKGPTGSGKTRLAETLSALFGQPMHSINCSVDLDAEALLGFKTIVHKNSQAVIEYVPGPVIQAMTKGHLLYIDEINMAKPETLPILNSVLDYRRRLTNPLTGDIVQAKQTFGVIAAINEGYIGTVPLNEALKNRFVVINVPYVQGETLKSVLLAQTTLTDETLIDRFVALSADLLAQVRNGQIAEEAASVRALLDACDLAAYMPPLRAIERSIVDKLDDERERAAVRNIAETWFDE | not soluble |
| MASTVLNVPIAQPENGSSDKIPKWSARAIKSLAMGELEARKLKYPSTGTEAILMGILVEGTSTVAKFLRGNGVTLFKVRDETLSLLGKSDMYFFSPEHPPLTEPAQKAIAWAIDEKNKSDVDGELTTAYLLLGVWSQKDSAGRQILEKLGFNEDKAKEVEKSMNEDVDLSFKKQGQLEHHHHHH | soluble |
| MAVCSLVAKITYAEERQQNNYPIILVNGFAGWGREEMLGVKYWGGVHDIQEDLKRNGYTVHTAAVGPVSSNWDRACELYAQINGGTVDYGAAHAEKHGHKRFGRTYSGFAPNWSETNKIHLVGHSMGGQTIRTLVQLLKEGSYEEKNYVKNHPNTKISPLFEGEKSYVHSVTTLATPHNGTTLADGSLLLPFVKDLLITAASFGGNDNLSLYDFKLDQWGLKKNTGESFFQYSNRILNSSIWKNTKDISQWDLSTDGAKELNNWVKTQLNVYYLSYSGHASQAAPITGLHLPHITMNKVLMGNAFFLGSYARYEENRPLIDTTWWQNDGVVNTSSMIAPSSNATVNNNESLQIGKWNHIETKANWDHLDMVGLSVSDTLGFSSIQEFYRAIAEKLSRLPK | not soluble |
| MVKLIHTLADHGDDVNCCAFSFSLLATCSLDKTIRLYSLRDFTELPHSPLKFHTYAVHCCCFSPSGHILASCSTDGTTVLWNTENGQMLAVMEQPSGSPVRVCQFSPDSTCLASGAADGTVVLWNAQSYKLYRCGSVKDGSLAACAFSPNGSFFVTGSSCGDLTVWDDKMRCLHSEKAHDLGITCCDFSSQPVSDGEQGLQFFRLASCGQDCQVKIWIVSFTDILARRTEHQLKQFTEDWSEEDVSTWLCAQDLKDLVGIFKMNNIDGKELLNLTKESLADDLKIESLGLRSKVLRKIEELRTKVKSLSSGIPDEFICPITRELMKDPVIASDGYSYEKEAMENWISKKKRTSPMTNLVLPSAVLTPNRTLKMAINRWLETHQK | soluble |
| MLAGHLFAGVGEDVRLFKGITMTYGHNIELGDNAVVHDGVHLDDRGELVVGARASVSNGAHLYTHDHDVVDQTDVTNYRTEIGADARVTQGALVRAGVRVGENALVGSRSVVQGDVPAHHIAVGSPAESVRVKPGWLEHHHHHH | not soluble |
| PKYQSTAALLVNRSQDDTAATALNDQQADVGLIYTYKDLITRPVILNKVAKELKSTYPTLTSTALAKMITVSSTTNSQIFSIAVRSTSSQEAKDIANETASVFKNEAVKLMGKTISNVTIVSSGLKNNTPVFPNTK | not soluble |
| MVPSEGTWVYVVNLRRVYWGRRTRRAIRAVRMVREFVRRHTKADEVVIDNELNNYIWSRSREKPPARVKIIVSIREEEPEEGGERIRKAVVRLAGRKLRPGRYKG | soluble |
| VVQGTVKPHASFNSREDAETLRKAMKGIGTDEKSITHILATRSNAQRQQIKTDYTTLFGKHLEDELKSELSGNYEAAALALLRKPDEFLAEQLHAAMKGLGTDKNALIDILCTQSNAQIHAIKAAFKLLYKEDLEKEIISETSGNFQRLLVSMLQGGRKEDEPVNAAHAAEDAAAIYQAGEGQIGTDESRFNAVLATRSYPQLHQIFHEYSKISNKTILQAIENEFSGDIKNGLLAIVKSVENRFAYFAERLHHAMKGLGTSDKTLIRILVSRSEIDLANIKETFQAMYGKSLYEFIADDCSGDYKDLLLQITGH | soluble |
| MGNDKRVRKPEWLKISIGANERYTETKRIVESHCLHTICSSGRCPNMGECWGKGTATFMIAGDICTRSCKFCNTQTGRPLPLDPDEPTHVAESIALMKLSHAVITSVDRDDLPDLGAAHWAQTIREIKRLNPETTTEVLIPDFQGRKELVDQVIKACPEIISHNMETVKRISPQVRSAANYHTSLEVIRQIAESGITAKSGIMVGLGETPAEVEELMDDLISVGCKILTIGQYLQPTHKHFPVAAYITPEQFAVYKETGLKKGFEQVESAPLVRSSYHAEKHIRFNNK | not soluble |
| MSLQQAVGMYVEAPTPDEAARLINSGRKLGIVIAVGVCEVFYTGRAAASLGPTRRLVILKRDGTLLVHEAEKAQPKIWNPPGSSTAAYVEGGKLVVKSIRSRPFETVRVIFDKVDFIAAFDVGATELTLVGSERDVVGALVKNPSIIEEGLEVVGVEVPTDVGHLDILARDKNGRYVIIEVKRDLATHEAVFQLARYVELYRRKGYDVRGILVAGDITASAYDYLKRYGLNFVKINPRELMVLTNKNPLNAKEGHHHHHH | soluble |
| MPARRSAARIDFAGSPRPTLGVEWEFALVDSQTRDLSNEATAVIAEIGENPRVHKELLRNTVEIVSGICECTAEAMQDLRDTLGPARQIVRDRGMELFCAGTHPFARWSAQKLTDAPRYAELIKRTQWWGRQMLIWGVHVHVGIRSAHKVMPIMTSLLNYYPHLLALSASSPWWGGEDTGYASNRAMMFQQLPTAGLPFHFQRWAEFEGFVYDQKKTGIIDHMDEIRWDIRPSPHLGTLEVRICDGVSNLRELGALVALTHCLIVDLDRRLDAGETLPTMPPWHVQENKWRAARYGLDAVIILDADSNERLVTDDLADVLTRLEPVAKSLNCADELAAVSDIYRDGASYQRQLRVAQQHDGDLRAVVDALVAELVI | soluble |
| MGSDKIHHHHHHMELKKLMEHISIIPDYRQTWKVEHKLSDILLLTICAVISGAEGWEDIEDFGETHLDFLKQYGDFENGIPVHDTIARVVSCISPAKFHECFINWMRDCHSSDDKDVIAIDGKTLRHSYDKSRRRGAIHVISAFSTMHSLVIGQIKTDEKSNEITAIPELLNMLDIKGKIITTDAMGCQKDIAEKIQKQGGDYLFAVKGTQGRLNKAFEEKFPLKELNNPEHDSYAISEKSHGREEIRLHIVCDVPDELIDFTFEWKGLKKLCVAVSFRSIIAEQKKEPEMTVRYYISSADLTAEKFATAIRNHWHVENKLHWRLDVVMNEDDCKIRRGNAAELFSGIRHIAINILTNDKVFKAGLRRKMRKAAMDRNYLASVLAGSGLS | not soluble |
| MEKKFPTVVTIGGRRYVKNNLNRKSEDCKMKLKEALKSFGRRVQKLQMSHCTIEKGTSLHVYKLDDARVIFTKKNKPIGFVVTGKAEEIDKSVYEKASSEINDATGKPNEPGAEERAEKDDASLID | not soluble |
